test: yeast display, Sf9 membrane polyspecificity reagent, FACS + sequencing; frameworks hold sequencing errors
How it was run: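 Sorting gates, low and high (top ~1%), were placed on anti-HA fluorescence to track expression and on streptavidin fluorescence to track reagent binding. A clone's polyreactivity label is taken from the gate it came out of. The reagent was 10% biotinylated, detergent-solubilized Sf9 membrane, applied for 1 hour at 4 °C to galactose-induced yeast display cells.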

Sequence	polyreactivity (PSR sort gate)
QVQLVESGGGLVQAGGSLRLSCAASGRIFFPYYTMGWYRQAPGKERELVAVISSSGSSTYYADSVKGRFTISRDNAKNTVYLQMNSLKPEDTAVYFCNAYGGVSTRLRGDYWGQGTQVTVSS	high polyreactivity
QVQLVESGGGLVQAGGSLRLSCAASGITSYYYTMGWYRQAPGKERELVAAITSGGSTYYADSVKGRFTISRDNAKNSVYLQMNSLKPEDTAVYYCTADNPRYRGSKYGPYDDYNYWGQGTQVTVSS	low polyreactivity
QVQLQESGGGMVQAGGSLLSCAASGTISYYREMGWYRQAPGKERELVAGIGVGTITYYADSVKGRFTIIRDNAKNTVYLQMNSLKPEDTAVYYCAAHIDGNDYHAYWGQGTQVTVSS	low polyreactivity
QVQLVESGGGLVQAGGSLRLSCAASGRIFKRYTMGWYRQAPGKERELVAGITFSGGSTYYADSVKGRFTISRDNAKNTVYLQMNSLKPEDTAVYDCNARVPPQGWGPWKAFDYWGQGTQVTVSS	low polyreactivity
QLQLVESGGGLVQAGGSLRLSCAASGSIFPDYAMGWYRPAPAKERELVAAITWRDDSTYYADSVKGRFTISRDNAKNTVYLQMNSLKPEDTAVYYCNASALDPLYAKDDYWGQGTQVTVSS	low polyreactivity
QVQLVESGGGLVQAGGSLRLSCAASGYIFVYNAMGWYRQAPGKERELVAAITDGGGSTYADSVKGRFTISRDNAKNTVYLQMNSLKPEDTAVYYCAARYSDTTWYVLYYYWGQGTQVTVSS	low polyreactivity
QVQLVESGGGLVQAGGSLPLSCAASGYTFDANAMGWYRQAPGKERELVASISSISDSTDYADSVKGRFTISRDNAKNTVYLQMNSLKPEDTAVYYCARSDVKPGRQERDYWGQGTQVTVSS	low polyreactivity
QVQLVESGGGLVQAGGSLRLSCAASGRTFTNYAMRWYIPAPGKERELVAAAITVGGGRTYYADSVKGRFTISRENAKNTVYLQMNSLKPEDTAVYYCATDFGTYWYEYWGQGTQVTVSS	high polyreactivity
QVQLVESGGGLVQAGGSLRLSCAASGSTFISNDMGWYRQAPGKEREFVAAITASGGSTYYADSVKGRFTISRDYAKNTVYLQMNSLKPEDTAVYYCARVYTFLDVYFRYGYWGQGTQVTVSS	low polyreactivity
QVQLVESGGGLVQAGGSLRISCAASGFIFWYYTMGRYIQAPGKERELVAAINSGGSTNYADSVKGRFTISRDNAKNTVYLQMNSLKPEDTAVYYCAALVCYSGELFYYWGQGTQVTVSS	low polyreactivity
QVHLVESGGGLVQAGGSLRLSSAASGRIFPWNAMGWYRQAPGKERELVAAISFSAGRTYYADSVKGRFTISRDNAKNTVYLQMNSLKPEDTAVYYCNARIGSRGVWTGIIGYEYWGQGTQVTVSS	low polyreactivity
QVQLVESGGGLVQAGGSLRLTCAASGIIFDTNAMGWYRQAPGKERELVATITQRGGTTYYADSVKGRFTISRDNAKNTVYLQMNSLKPEDTAVYYCNAGPVRLPYDSWGQGTQVTVSS	low polyreactivity
QVQLVESGGGLDQAGGSLRLSCAASGTTFVPNDMGWYRQAPGKERELVAAITDSGGSTYYADSVWGRFTISRDNAKNTVYLQMNILKPEDTAVYYCADVQHYVTHMDYWGQGNQVTVSS	low polyreactivity
QVQLVESGGGLVQAGGSLRLSCAASGGIFAYYAMGWYRQAPGKERELVAAITSRGGRTYYADSVKGRFTISRDNAKNTVYLQMNSLKPEDTAVYYCNAERFWPWDYDYWGQGTQVTVSS	high polyreactivity
QVHLVESGGGLVQAGGSLRLSCAASGRIMVHNAMGWYRQAPGKERELVAVITARGASTYYADSVKGRFTISRDNAKNTVYLQMNSLKPEDTAVYYCATDKRPKYYNQYDYWGQGTQVTVSS	low polyreactivity
QVQLVESGGGLVQAGGSLRLSCAASGRTFRANAMGWSRQAAGKERELVAAITWDGGSTYYADSVKGRFTISRDNAKNTVYLQMNSLKPEDTAVYYCAAESWFLRWYRYDYWGQGTQVTVSS	low polyreactivity
QVQLVESGGGLVQAGGSLRLSCAASGIIFRNYAMGWYRQAPGKEREFVAAISYRGGTTYYADSVKGRFTISRDNAKNTVYLQMNSLKPEDTAVYYCAAPYYLQQSRYYYWGQGTQVTVSS	high polyreactivity
QVQLVESGGGLVQAGGSLRLSCAASGRIFRYYTMGWYRQAPGKERELVAAISGRGGRTYYADSVKGRFTISRDNAKNTVYLQMNSLKPEDTAVYYCNAYDHPIYRLDYWGQGTQVTVSS	high polyreactivity
QVQLQESGGGLVQAGGSLRLSCAASGTISYAPHMGWYRHAPGKERELDAGITIGGTTYYADSVKGRFTISRDYAKNTVDLQMNRLSPGDTAVYYCAAHSEQYTPFYYWGQGTQVTVSS	low polyreactivity
QVQLVESGGGLVQAGGSLRLSCAASGIIFPRYALGWYRQAPGKERELVAAITIGGRTNYADSVKGRFTISRDNAKNTVYLQMNSLKPEDPAVYYGAAQTYVPYYEYDYWGQGTQVTVSS	low polyreactivity
QDQHEESGGGLVQAGGSLRLICAASGLIFPRYAMGWYRPAPGKERELVAAITRGGSTYYADSVKGRFTISRDNAKNTVYLQMNSLKPEDTAVYYCNAELPVHWSWYDYWGQGTQVTVSS	low polyreactivity
QVQLVESGGGLVQAGGSLRLSCAASGSIFRLYAMGWYRQAPGKERELVAAISWTVGRTYYADSVKGRFTISRDNAKNTVYVQMNSLKPEDTAVYYCAAEKRILANWRRFDYWGQGTQVTVSS	low polyreactivity

Sequence	polyreactivity (PSR sort gate)
QVQLVESGGGLVQAGGSLRLSCAASGNTQGYNAAMGWYRQAPGKERELVAAINSGGGSTYYADSVKGRFTISRDNAKNTVYLQMNSLKPEDTAVYYCAARYRSRYDYYYDRDYWGQGTQVTVSS	low polyreactivity
QVQLVESGGVLVQAGGSLRLSCAASGSTFYPNAMGWYRQAPGQEREFVAAISDGGSTTYADSVKGRFTISRDNAKNTVYLQMNSLKPEDTAVYYCNARVGSYTPSWYYQEFDYWGQGTQVTVSS	low polyreactivity
QVQLVESGGGLVQAGGSLRLSCAASGIIFVRNAMGWYRQAPGKERELVAAISRSGGSTYYADSVKGRFTISRDNAKNTVYLQMNSLKPEDTAVYYCAAVMRLSSGYDYWGQGTQVTVSS	high polyreactivity
QVQLVESGGGLVQAGGSLRLSCAASGSTFKPNAMGWSRQAPGKERELVAAINGSGGDTYYADSVKGRFTISRDYANNTFYLQMNSLKPEDTAVYYCAAQWGYYNYWYGYWGQGTQVTVSS	low polyreactivity
QVQLVESGGGLVQAGGSLRLSCAASGITFIRNGMGWYRQAPGKERELVAAISYTGARTYYADSVKGRFTISRDNAKNTVYLQMNSLKPEDNAVYYCAAEVRTRYLYSFRWYDYWGEGTQVTVSS	low polyreactivity
QVQLVESGGGLDQAGGSLRLSCAASGSIFVPYAMGGYRQAPGKERELVAAITSGDSTYYADSVKGRFTISRDNAKNNVYLQMNSLKPEDTAVYYCAADIRPTLSLLSLFDYEYWGQGTQVTVSS	low polyreactivity
QGQLVESGGGLVQAGGSLRLSCAASGSSFPYYAMGWYRQAPGKERELVASINQSDGTTYYADSVKGRFSISRDNAKNTVYLQMNSLKPEDTAVYYCAADTTLQAFIRYSPIGSYDSWGQGTQVTVSS	low polyreactivity
QVQLEESGGGLVLAGGSLRLSCAASGSTFYNYAKGCYREAPGKERELVAAITFTGGSTYYADSVKGRFTISRDNAKNTVYLQMNSLKPEDTAVYYCNRLGPLGDQQQYDYWGQGTQVTVSS	low polyreactivity
QVQLVESGGGLVQAGGSLRLSCAASGLTFVTYVMGWYRQAPGKERELVAAISYSGGSTYYADSVKGRFTISRDNAKNTVYLQMISLKPEDTAVYYCAAEWYGYQEDDYWGQGTQVTVSS	low polyreactivity
QVQRVESGGGLVQAGGSLRLSCAASGITFSRYAMGWYRPAPGKERELVAAISRSGTRTYYADSVKGRFTISRDNAKNTVYLQMNSLKPEDSAVYYCAAESFASSFDYWGQGTQVTVSS	high polyreactivity
QVQLVESGGGLVQAGGSLRLSCAASGITFDYNAMGWYRQAPGKERELVASINSGGNTNYADSVKGRFTISRDNAKNTVYLQMNSLKPEDTAVYYCATVSYYLYTRYDYWGQGTQVTVSS	low polyreactivity
QVQLVESGGGLVQAGGSLRLSCAASGLILSSNAMGWYRQAPGKERELVAAITWDGDRTYADSVKGRFTISRDNAKNTVYLQMNSLKPEDTAVYYCAAPSYVSYDSEFGYWGQGTQVTVSS	low polyreactivity
QVQLVESGGGLVQAGGSLRLSCAASGYTLGPNTMGWYRQAPGKERELVATITYSGGSTYYADSVKGRFTISRDNAKNTVYLQMNSLKPEDTAVYYCAARYGSRRIPGSLGYWGQGTQVTVSS	high polyreactivity
QVQLVESGGGLVQAGGSLRLSCAASGSIFVYYVMGWYRQAPGKERELVAAISSGGRTYYADSVKGRFTISRDNAKNTVYLQMNSLKPEDTAVYYCAAVWYWTQDYDYWGQGTQVTVSS	low polyreactivity
QVQLVESGGGLVQAGGSLRLSCAASGSISWYYAMGWYRQAPGKERELVAAISDSGGDTYYADSVKGRFTISRDNAKNTVYLQMNSLKPEDTAVYYCATDTAYWLWVYALLEYWGQGTQVTVSS	low polyreactivity
QVQLVESGGGLVQAGGSLRLSCAASGRIFGFYAMGWYRQAPGKEREFVAAITWSGTNTYYADSVKGRFTISRDNAKNTVYLQMNSLKPEDTAVYYCNARQYYKYGYWGQGTQVTVSS	high polyreactivity
QVQLVESGGGLVQAGGSLRLSCAASGSTFSRYTMGRYRQAPGKERELVAAIRRSGASTYYADSVKGRFTISRDNAKNTVYLQMNSLKPEDTAVYYFAVGRYRYGYWGQGTQVTVSS	high polyreactivity
QVQLVESGGGLVQAGGSLRLSCAASGSTFIGYAMGWYRQAPGKERELVASISWGGGSTYYADSVKGRFTISRDNAKNTVYLQMNSLKPEDTAVYYCATDGRTYIDFYWGQGTQVTVSS	low polyreactivity
QVQLVESAGGLVQAGGSLRLSCAASGRTSVIYAMGWYRQAPGKERELVASIRRGGSTSYADSVKGRFTISRDNAKNTVYLQMNSLKPEDTAVYYCARETLGGTYLGDYWGQGTQVTVSS	high polyreactivity
QLHLVESGGGLVQAGGSLRLSCAASGIIFWYNDMGWYRQAPGKESELVAAISTGGSTNYADSVKGRFTISRDNAKNTVYLQMNSLKPEDTAVYYCAGDWHRAYGGYDYWGEGTQVTVSS	low polyreactivity
QVQLVESGGGLVQAGGSLRLSCAASGRTFARYAMGWYRQAPWKERELVAAISRGGDSTYYADSVKGRFTISRDNAKNNVYLQMNSLKPEDTADYYCNAYVILALGYGGYDYWGQGTQVTVSS	high polyreactivity

Reference: the nanobody polyreactivity screen of Harvey et al. (2022)
